Target: Mycobacterium tuberculosis ClpC2 (full length, wild type) (Mycobacterium tuberculosis)
Test: SEC

Mycobacterium tuberculosis ClpC2 (full length, wild type) (natural protein)
stoichiometry N: 2
